Patent US20250277059A1, “ANTIBODY USED TO TREAT CORONAVIRUS INFECTION” (priority 2022, published 2025)

B1: humanized 752-1 IgG4 (S108P) prototype #2: humanized 752 antibody, 752_hVH-1 (SEQ ID NO: 124) and 752_hVL-2 (SEQ ID NO: 119), human IgG4 (S108P) (antibody, V domains shown)
VH: QVQLVQSGAEVKKPGASVKVSCKASGYTFTSCGISWVRQAPGQGLEWMGEIYPRGGNTYYNEKFKGRVTMTTDTSTSTAYMELRSLRSDDTAVYYCARENGNYDPLFAYWGQGTLVTVSS
VL: DIQMTQSPSSLSASVGDRVTITCKASQDINKYIAWYQQKPGKAPKLLIHYTSTLQPGVPSRFSGSGSGTDFTFTISSLQPEDIATYYCLQYYNLWTFGGGTKVEIK
modifications: human IgG4 S108P constant region
B2: humanized 752-1 IgG4 (S108P) prototype #1: humanized 752 antibody, 752_hVH-1 (SEQ ID NO: 124) and 752_hVL-1 (SEQ ID NO: 114), human IgG4 (S108P) (antibody, V domains shown)
VH: QVQLVQSGAEVKKPGASVKVSCKASGYTFTSCGISWVRQAPGQGLEWMGEIYPRGGNTYYNEKFKGRVTMTTDTSTSTAYMELRSLRSDDTAVYYCARENGNYDPLFAYWGQGTLVTVSS
VL: DIQMTQSPSSLSASVGDRVTITCKASQDINKYIAWYQQKPGKAPKLLIYYTSTLQPGVPSRFSGSGSGTDFTFTISSLQPEDIATYYCLQYYNLWTFGGGTKVEIK
modifications: human IgG4 S108P constant region
B3: humanized 2228-15 IgG4 (S108P) prototype #3: humanized 2228 antibody, 2228_hVH-2 (SEQ ID NO: 149) and 2228_hVL-1 (SEQ ID NO: 134), human IgG4 (S108P) (antibody, V domains shown)
VH: EIQLVQSGAEVKKPGSSVKVSCKASGYTFTDYYINWMRQAPGQGLEWIGWIFPGSGSSYYNAIFKGRATLTVDTSTNTAYMELSSLRSEDTAFYFCARGDFGNFGGFFTYWGQGTLVTVSS
VL: DVVMTQSPLSLPVTLGQPASISCRASKSVSTSGYSFMHWFQQRPGQSPRRLIYLASNLESGVPDRFSGSGSGTDFTLKISRVEAEDVGVYYCQHSRELPLTFGGGTKVEIK
modifications: human IgG4 S108P constant region
B4: humanized 2228-15 IgG4 (S108P) prototype #1: humanized 2228 antibody, 2228_hVH-1 (SEQ ID NO: 144) and 2228_hVL-1 (SEQ ID NO: 134), human IgG4 (S108P) (antibody, V domains shown)
VH: QVQLVQSGAEVKKPGASVKVSCKASGYTFTDYYINWVRQAPGQGLEWMGWIFPGSGSSYYNAIFKGRVTMTRDTSISTAYMELSRLRSDDTAVYYCARGDFGNFGGFFTYWGQGTLVTVSS
VL: DVVMTQSPLSLPVTLGQPASISCRASKSVSTSGYSFMHWFQQRPGQSPRRLIYLASNLESGVPDRFSGSGSGTDFTLKISRVEAEDVGVYYCQHSRELPLTFGGGTKVEIK
modifications: human IgG4 S108P constant region
B5: humanized 2228-15 IgG4 (S108P) prototype #2: humanized 2228 antibody, 2228_hVH-1 (SEQ ID NO: 144) and 2228_hVL-2 (SEQ ID NO: 139), human IgG4 (S108P) (antibody, V domains shown)
VH: QVQLVQSGAEVKKPGASVKVSCKASGYTFTDYYINWVRQAPGQGLEWMGWIFPGSGSSYYNAIFKGRVTMTRDTSISTAYMELSRLRSDDTAVYYCARGDFGNFGGFFTYWGQGTLVTVSS
VL: DIVMTQSPDSLAVSLGERATINCRASKSVSTSGYSFMHWYQQKPGQPPKLLIYLASNLESGVPDRFSGSGSGTDFTLTIRPLQAEDVAVYYCQHSRELPLTFGQGTKLEIK
modifications: human IgG4 S108P constant region
B6: humanized 2228-15 IgG4 (S108P) prototype #4: humanized 2228 antibody, 2228_hVH-2 (SEQ ID NO: 149) and 2228_hVL-2 (SEQ ID NO: 139), human IgG4 (S108P) (antibody, V domains shown)
VH: EIQLVQSGAEVKKPGSSVKVSCKASGYTFTDYYINWMRQAPGQGLEWIGWIFPGSGSSYYNAIFKGRATLTVDTSTNTAYMELSSLRSEDTAFYFCARGDFGNFGGFFTYWGQGTLVTVSS
VL: DIVMTQSPDSLAVSLGERATINCRASKSVSTSGYSFMHWYQQKPGQPPKLLIYLASNLESGVPDRFSGSGSGTDFTLTIRPLQAEDVAVYYCQHSRELPLTFGQGTKLEIK
modifications: human IgG4 S108P constant region
B7: humanized 752-1 IgG4 (S108P) prototype #4: humanized 752 antibody, 752_hVH-2 (SEQ ID NO: 129) and 752_hVL-2 (SEQ ID NO: 119), human IgG4 (S108P) (antibody, V domains shown)
VH: QVQLQQSGTGLARPGASVKLSCKASGYTFTSCGISWVTQRAGQGLEWIGEIYPRGGNTYYNEKFKGKATLTADKSSSSAYMELRGLTAEDSAVYFCARENGNYDPLFAYWGQGTTLTVSS
VL: DIQMTQSPSSLSASVGDRVTITCKASQDINKYIAWYQQKPGKAPKLLIHYTSTLQPGVPSRFSGSGSGTDFTFTISSLQPEDIATYYCLQYYNLWTFGGGTKVEIK
B8: humanized 752-1 IgG4 (S108P) prototype #3: humanized 752 antibody, 752_hVH-2 (SEQ ID NO: 129) and 752_hVL-1 (SEQ ID NO: 114), human IgG4 (S108P) (antibody, V domains shown)
VH: QVQLQQSGTGLARPGASVKLSCKASGYTFTSCGISWVTQRAGQGLEWIGEIYPRGGNTYYNEKFKGKATLTADKSSSSAYMELRGLTAEDSAVYFCARENGNYDPLFAYWGQGTTLTVSS
VL: DIQMTQSPSSLSASVGDRVTITCKASQDINKYIAWYQQKPGKAPKLLIYYTSTLQPGVPSRFSGSGSGTDFTFTISSLQPEDIATYYCLQYYNLWTFGGGTKVEIK
modifications: human IgG4 S108P constant region
B9: humanized 752-1 IgG4 (S108P) prototype #1 (antibody, V domains shown)
VH: QVQLVQSGAEVKKPGASVKVSCKASGYTFTSCGISWVRQAPGQGLEWMGEIYPRGGNTYYNEKFKGRVTMTTDTSTSTAYMELRSLRSDDTAVYYCARENGNYDPLFAYWGQGTLVTVSS
VL: DIQMTQSPSSLSASVGDRVTITCKASQDINKYIAWYQQKPGKAPKLLIYYTSTLQPGVPSRFSGSGSGTDFTFTISSLQPEDIATYYCLQYYNLWTFGGGTKVEIK
notes: also called humanized #1; hu #1
B10: humanized 752-1 IgG4 (S108P) prototype #2 (antibody, V domains shown)
VH: QVQLVQSGAEVKKPGASVKVSCKASGYTFTSCGISWVRQAPGQGLEWMGEIYPRGGNTYYNEKFKGRVTMTTDTSTSTAYMELRSLRSDDTAVYYCARENGNYDPLFAYWGQGTLVTVSS
VL: DIQMTQSPSSLSASVGDRVTITCKASQDINKYIAWYQQKPGKAPKLLIHYTSTLQPGVPSRFSGSGSGTDFTFTISSLQPEDIATYYCLQYYNLWTFGGGTKVEIK
notes: also called humanized #2; hu #2
B11: recombinant 2228-15 mIgG (antibody, V domains shown)
VH: QVQLQQSGPELVKPGTSVKISCKASGYTFTDYYINWVKQRPGQGLEWIGWIFPGSGSSYYNAIFKGKATLTVDTSSNTAHMSLSSLTSDDSAVYFCARGDFGNFGGFFTYWGQGTLVTVSA
VL: DVVVTQSPASLAVSLGQRATISCRASKSVSTSGYSFMHWYQQKPGQPPKLLIYLASNLESGVPARFSGSGSGTDFILNIHPVEEEDAATYYCQHSRELPLTFGAGTKLELK
B12: humanized 752-1 IgG4 (S108P) prototype #3 (antibody, V domains shown)
VH: QVQLQQSGTGLARPGASVKLSCKASGYTFTSCGISWVTQRAGQGLEWIGEIYPRGGNTYYNEKFKGKATLTADKSSSSAYMELRGLTAEDSAVYFCARENGNYDPLFAYWGQGTTLTVSS
VL: DIQMTQSPSSLSASVGDRVTITCKASQDINKYIAWYQQKPGKAPKLLIYYTSTLQPGVPSRFSGSGSGTDFTFTISSLQPEDIATYYCLQYYNLWTFGGGTKVEIK
notes: also called humanized #3; hu #3
B13: 2228_15 human IgG4 chimeric antibody (antibody, V domains shown)
VH: QVQLQQSGPELVKPGTSVKISCKASGYTFTDYYINWVKQRPGQGLEWIGWIFPGSGSSYYNAIFKGKATLTVDTSSNTAHMSLSSLTSDDSAVYFCARGDFGNFGGFFTYWGQGTLVTVSA
VL: DVVVTQSPASLAVSLGQRATISCRASKSVSTSGYSFMHWYQQKPGQPPKLLIYLASNLESGVPARFSGSGSGTDFILNIHPVEEEDAATYYCQHSRELPLTFGAGTKLELK
B14: humanized 2228-15 IgG4 (S108P) prototype #2 (antibody, V domains shown)
VH: QVQLVQSGAEVKKPGASVKVSCKASGYTFTDYYINWVRQAPGQGLEWMGWIFPGSGSSYYNAIFKGRVTMTRDTSISTAYMELSRLRSDDTAVYYCARGDFGNFGGFFTYWGQGTLVTVSS
VL: DIVMTQSPDSLAVSLGERATINCRASKSVSTSGYSFMHWYQQKPGQPPKLLIYLASNLESGVPDRFSGSGSGTDFTLTIRPLQAEDVAVYYCQHSRELPLTFGQGTKLEIK
notes: also called hu #2
B15: 752_1 human IgG4 chimeric antibody (antibody, V domains shown)
VH: QVQLQQSGAELARPGASVKLSCKASGYTFTSCGISWVKQRTGQGLEWIGEIYPRGGNTYYNEKFKGKATLTADKSSSTAYMELRSLTSEDSAVYFCARENGNYDPLFAYWGQGTLVTVSA
VL: DIQMTQSPSSLSASLGGKVTITCKASQDINKYIAWYQHKPGKGPRLLIHYTSTLQPGIPSRFSGSGSGRDYSFSIYNLEPEDIATYYCLQYYNLWTFGGGTKLEIK

Biological target: human TMPRSS2 (Homo sapiens, UniProt O15393)
Sequence (O15393 106-492 limits assumed): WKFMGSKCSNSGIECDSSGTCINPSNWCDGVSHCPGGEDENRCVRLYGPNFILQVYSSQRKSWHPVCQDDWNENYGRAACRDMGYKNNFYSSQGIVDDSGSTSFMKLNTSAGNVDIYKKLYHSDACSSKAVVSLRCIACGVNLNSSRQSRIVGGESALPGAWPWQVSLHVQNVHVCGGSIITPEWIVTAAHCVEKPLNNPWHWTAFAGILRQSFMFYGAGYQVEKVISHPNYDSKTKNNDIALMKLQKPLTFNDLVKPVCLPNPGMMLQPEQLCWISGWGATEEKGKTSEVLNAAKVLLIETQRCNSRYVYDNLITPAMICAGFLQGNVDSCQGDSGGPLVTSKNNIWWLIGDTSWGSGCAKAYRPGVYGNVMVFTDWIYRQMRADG
Assay: BIACore binding assay of anti-TMPRSS2 antibodies
Conditions: Table 8, recombinant and humanized antibodies

In order of rising “ka” value:
1. B2  412000 M⁻¹ s⁻¹
2. B5  731000 M⁻¹ s⁻¹
3. B3  825000 M⁻¹ s⁻¹
4. B1  1.13e+06 M⁻¹ s⁻¹
5. B6  1.44e+06 M⁻¹ s⁻¹
6. B8  2.22e+06 M⁻¹ s⁻¹
7. B7  2.5e+06 M⁻¹ s⁻¹
8. B4  5.22e+06 M⁻¹ s⁻¹

In order of rising “kd” value:
1. B6  0.0001 s⁻¹
2. B3  0.000774 s⁻¹
3. B5  0.001039 s⁻¹
4. B8  0.004691 s⁻¹
5. B7  0.006114 s⁻¹
6. B2  0.009321 s⁻¹
7. B1  0.01521 s⁻¹
8. B4  0.0641 s⁻¹

Biological target: T1, Human TMPRSS2 recombinant protein, extracellular region (N-terminal His tag, C-terminal Strep-tag II) (human, UniProt O15393 106-492)
T1 construct: also called Human TMPRSS2 recombinant proteins; extracellular region of human TMPRSS2
T1 sequence (O15393 other isoform, or with tags, fused parts or gaps limits assumed): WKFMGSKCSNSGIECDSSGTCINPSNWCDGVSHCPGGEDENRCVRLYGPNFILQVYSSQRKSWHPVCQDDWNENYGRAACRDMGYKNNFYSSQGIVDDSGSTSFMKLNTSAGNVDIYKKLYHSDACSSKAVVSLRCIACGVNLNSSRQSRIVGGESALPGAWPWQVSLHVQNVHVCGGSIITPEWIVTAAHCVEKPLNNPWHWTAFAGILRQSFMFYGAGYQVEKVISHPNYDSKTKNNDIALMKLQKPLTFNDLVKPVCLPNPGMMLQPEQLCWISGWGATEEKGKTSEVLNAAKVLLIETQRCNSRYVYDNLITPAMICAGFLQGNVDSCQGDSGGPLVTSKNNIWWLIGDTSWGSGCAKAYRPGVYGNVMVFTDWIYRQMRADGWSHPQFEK
Assay: SPR (BIACore)
Conditions: not given

In order of falling Kd:
1. B9  22.6 nM
2. B10  13.4 nM
3. B11  3.72 nM
4. B12  2.11 nM

In order of falling koff:
1. B10  0.0152 s⁻¹
2. B9  0.00932 s⁻¹
3. B12  0.00469 s⁻¹

In order of rising kon:
1. B9  412000 M⁻¹ s⁻¹
2. B10  1.13e+06 M⁻¹ s⁻¹
3. B12  2.22e+06 M⁻¹ s⁻¹

Biological target: T2, Human TMPRSS2 expressed on cells (human, UniProt O15393 1-492)
T2 construct: also called TMPRSS2 expressing cells; Daudi-TMPRSS2 transfectant
T2 sequence (O15393 whole entry): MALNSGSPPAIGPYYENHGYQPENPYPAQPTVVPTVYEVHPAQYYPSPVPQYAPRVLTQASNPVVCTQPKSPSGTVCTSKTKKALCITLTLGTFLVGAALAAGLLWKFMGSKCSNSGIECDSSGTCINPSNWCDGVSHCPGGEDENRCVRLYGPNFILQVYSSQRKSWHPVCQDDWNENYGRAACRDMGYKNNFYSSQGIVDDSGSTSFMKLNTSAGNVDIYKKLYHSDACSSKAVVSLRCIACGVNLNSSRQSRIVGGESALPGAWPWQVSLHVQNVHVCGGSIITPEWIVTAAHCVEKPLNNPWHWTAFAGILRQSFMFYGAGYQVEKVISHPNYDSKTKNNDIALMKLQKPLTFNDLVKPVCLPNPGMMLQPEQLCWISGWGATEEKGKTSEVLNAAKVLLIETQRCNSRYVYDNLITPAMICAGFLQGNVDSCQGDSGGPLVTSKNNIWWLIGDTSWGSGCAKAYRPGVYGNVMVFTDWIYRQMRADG
Assay: not given
Conditions: not given

In order of rising “APC median at 3 µg/ml” value:
1. B10  1410
2. B9  1450
3. B12  1560
4. B15  2040
5. B13  2370
6. B14  2540
